The values that follow come from patent publication US20140196168A1 (SWETREE TECHNOLOGIES, published 2014).

This experiment concerns the target T1, Gal4-DNA Binding Domain fused to the Arabidopsis thaliana Med25 551-680 amino acid domain (bait, pGBKT7-Med25 … (Arabidopsis thaliana)).
T1 construct: Expressed in yeast AH109 as a two-hybrid bait; also called G4-DBD-Med25; Med25 bait construct
The experiment can be described thus: yeast two-hybrid with deletion derivatives.

B1: DREB2A amino acids 169-254 (two-hybrid derivative, Gal4 activation domain fusion) (other, Arabidopsis thaliana, UniProt O82132 169-254, looked up, not shown: large carriers)
chain: CESKPFSGGVEPMYCLENGAEEMKRGVKADKHWLSEFEHNYWSDILKEKEKQKEQGIVETCQQQQQDSLSVADYGWPNDVDQSHLD
B1: the binding result was “binds”.

B2: ZFHD1 amino acids 1-132 (two-hybrid derivative, Gal4 activation domain fusion) (other, Arabidopsis thaliana, UniProt Q9SEZ1 1-132, looked up, not shown: large carriers)
chain: MDLSSKPQQQLLNSLPIAGELTVTGEMGVCYKECLKNHAANLGGHALDGCGEFMPSPTATSTDPSSLRCAACGCHRNFHRRDPSENLNFLTAPPISSPSGTESPPSRHVSSPVPCSYYTSAPPHHVILSLSS
For B2, the binding result is “binds”.
